In article PMC8896503:

Key:
Test in all cases: PBM
[1] = target: p65 (RELA, NF-kB) (Homo sapiens (THP-1-derived macrophages)) (UniProt Q04206); conditions: Nuclear extract PBM (PMA-differentiated THP-1; untreated, LPS 45 min, or IFNg+LPS), antibody detection, buffer, salt, pH and temperature not in the material
[2] = target: T1, TBL1XR1 complex (Homo sapiens (THP-1-derived macrophages)) (UniProt Q9BZK7); conditions: IFNg+LPS extract, Nuclear extract PBM (PMA-differentiated THP-1; untreated, LPS 45 min, or IFNg+LPS), antibody detection, buffer, salt, pH and temperature not in the material
T1 sequence: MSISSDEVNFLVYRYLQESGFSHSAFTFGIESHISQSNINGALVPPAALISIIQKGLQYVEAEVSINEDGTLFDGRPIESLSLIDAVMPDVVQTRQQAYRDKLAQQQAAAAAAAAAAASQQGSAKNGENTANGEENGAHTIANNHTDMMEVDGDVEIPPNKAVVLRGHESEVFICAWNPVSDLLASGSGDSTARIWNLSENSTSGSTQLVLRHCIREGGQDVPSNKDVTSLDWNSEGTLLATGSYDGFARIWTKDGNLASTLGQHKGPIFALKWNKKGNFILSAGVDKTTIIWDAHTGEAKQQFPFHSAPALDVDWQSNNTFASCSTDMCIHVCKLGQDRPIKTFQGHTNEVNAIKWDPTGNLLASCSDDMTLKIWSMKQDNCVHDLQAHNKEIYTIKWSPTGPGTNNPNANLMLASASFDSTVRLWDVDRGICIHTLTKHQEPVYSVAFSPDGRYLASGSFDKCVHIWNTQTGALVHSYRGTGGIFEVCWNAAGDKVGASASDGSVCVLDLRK

[3] = target: GCN5 complex (Homo sapiens (THP-1-derived macrophages)) (UniProt Q92830); conditions: IFNg+LPS extract; Nuclear extract PBM (PMA-differentiated THP-1; untreated, LPS 45 min, or IFNg+LPS), antibody detection; buffer, salt, pH and temperature not in the material
[4] = target: RBBP5 complex (Homo sapiens (THP-1-derived macrophages)) (UniProt Q15291); conditions: Nuclear extract PBM (PMA-differentiated THP-1; untreated, LPS 45 min, or IFNg+LPS), antibody detection, buffer, salt, pH and temperature not in the material
RBBP5 complex (Homo sapiens (THP-1-derived macrophages)), sequence (Q15291 whole entry, one chain of several): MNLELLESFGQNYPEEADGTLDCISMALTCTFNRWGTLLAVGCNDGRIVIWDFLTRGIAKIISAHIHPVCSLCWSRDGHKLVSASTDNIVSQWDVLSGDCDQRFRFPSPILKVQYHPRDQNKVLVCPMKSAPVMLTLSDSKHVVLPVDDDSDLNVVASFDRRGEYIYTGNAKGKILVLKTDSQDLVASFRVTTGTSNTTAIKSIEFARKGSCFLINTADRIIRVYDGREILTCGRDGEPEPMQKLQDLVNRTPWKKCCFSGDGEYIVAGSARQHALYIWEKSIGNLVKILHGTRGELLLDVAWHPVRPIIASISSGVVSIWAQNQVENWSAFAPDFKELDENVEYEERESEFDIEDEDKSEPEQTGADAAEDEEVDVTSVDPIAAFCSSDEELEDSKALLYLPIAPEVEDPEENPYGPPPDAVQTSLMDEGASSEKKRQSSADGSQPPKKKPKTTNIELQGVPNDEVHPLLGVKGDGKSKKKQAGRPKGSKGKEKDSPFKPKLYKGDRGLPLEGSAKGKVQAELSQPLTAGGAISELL

[5] = target: PU.1 (Homo sapiens (THP-1-derived macrophages)) (UniProt P17947); conditions: IFNg+LPS extract; Nuclear extract PBM (PMA-differentiated THP-1; untreated, LPS 45 min, or IFNg+LPS), antibody detection; buffer, salt, pH and temperature not in the material
[6] = target: SMARCA4/BRG1 complex (Homo sapiens (THP-1-derived macrophages)) (UniProt P51532); conditions: IFNg+LPS extract, Nuclear extract PBM (PMA-differentiated THP-1; untreated, LPS 45 min, or IFNg+LPS), antibody detection, buffer, salt, pH and temperature not in the material
SMARCA4/BRG1 complex (Homo sapiens (THP-1-derived macrophages)), sequence (P51532 whole entry, one chain of several): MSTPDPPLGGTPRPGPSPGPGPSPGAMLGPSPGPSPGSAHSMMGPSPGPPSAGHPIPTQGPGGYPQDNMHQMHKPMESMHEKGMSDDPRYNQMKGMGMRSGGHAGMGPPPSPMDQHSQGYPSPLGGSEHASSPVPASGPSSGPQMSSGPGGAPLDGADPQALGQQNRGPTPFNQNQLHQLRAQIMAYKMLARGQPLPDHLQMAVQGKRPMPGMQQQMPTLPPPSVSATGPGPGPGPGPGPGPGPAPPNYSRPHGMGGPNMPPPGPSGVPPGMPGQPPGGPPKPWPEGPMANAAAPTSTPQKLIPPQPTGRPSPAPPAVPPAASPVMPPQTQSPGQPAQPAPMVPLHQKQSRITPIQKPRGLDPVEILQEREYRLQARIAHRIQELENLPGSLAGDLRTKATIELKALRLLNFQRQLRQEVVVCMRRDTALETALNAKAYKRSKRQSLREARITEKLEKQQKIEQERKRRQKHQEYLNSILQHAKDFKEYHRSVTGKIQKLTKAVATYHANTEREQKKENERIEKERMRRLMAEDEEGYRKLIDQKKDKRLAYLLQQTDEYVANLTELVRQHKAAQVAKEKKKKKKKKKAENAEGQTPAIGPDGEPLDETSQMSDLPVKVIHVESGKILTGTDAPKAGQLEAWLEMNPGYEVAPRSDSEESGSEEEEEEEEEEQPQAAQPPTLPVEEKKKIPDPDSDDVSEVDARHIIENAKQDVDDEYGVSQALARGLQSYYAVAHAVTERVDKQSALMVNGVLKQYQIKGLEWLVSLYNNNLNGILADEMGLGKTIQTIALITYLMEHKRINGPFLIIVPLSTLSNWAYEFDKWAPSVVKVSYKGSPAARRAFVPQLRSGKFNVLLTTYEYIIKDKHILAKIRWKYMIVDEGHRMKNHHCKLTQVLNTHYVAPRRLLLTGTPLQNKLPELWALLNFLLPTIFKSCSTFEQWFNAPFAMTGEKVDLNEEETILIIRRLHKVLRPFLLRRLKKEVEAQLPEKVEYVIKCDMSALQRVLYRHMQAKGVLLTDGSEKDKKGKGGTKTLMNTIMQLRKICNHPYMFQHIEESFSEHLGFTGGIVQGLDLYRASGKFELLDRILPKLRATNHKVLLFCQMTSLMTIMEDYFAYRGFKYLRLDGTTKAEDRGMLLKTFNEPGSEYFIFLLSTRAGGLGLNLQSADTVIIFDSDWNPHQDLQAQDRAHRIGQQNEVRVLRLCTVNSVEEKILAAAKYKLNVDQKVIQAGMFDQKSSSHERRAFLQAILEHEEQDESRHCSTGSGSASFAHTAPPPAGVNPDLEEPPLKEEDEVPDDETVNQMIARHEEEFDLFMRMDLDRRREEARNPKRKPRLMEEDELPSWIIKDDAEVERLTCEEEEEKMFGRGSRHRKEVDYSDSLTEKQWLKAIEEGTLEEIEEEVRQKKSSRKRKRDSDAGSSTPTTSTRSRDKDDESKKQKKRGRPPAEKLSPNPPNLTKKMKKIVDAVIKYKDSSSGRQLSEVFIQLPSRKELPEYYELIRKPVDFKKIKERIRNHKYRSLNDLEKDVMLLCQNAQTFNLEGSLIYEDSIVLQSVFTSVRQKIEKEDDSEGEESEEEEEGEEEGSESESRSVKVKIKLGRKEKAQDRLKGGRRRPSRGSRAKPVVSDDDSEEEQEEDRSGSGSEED

[7] = target: p300 complex (Homo sapiens (THP-1-derived macrophages)) (UniProt Q09472); conditions: Nuclear extract PBM (PMA-differentiated THP-1; untreated, LPS 45 min, or IFNg+LPS), antibody detection, buffer, salt, pH and temperature not in the material
p300 complex (Homo sapiens (THP-1-derived macrophages)), sequence (Q09472 whole entry, one chain of several): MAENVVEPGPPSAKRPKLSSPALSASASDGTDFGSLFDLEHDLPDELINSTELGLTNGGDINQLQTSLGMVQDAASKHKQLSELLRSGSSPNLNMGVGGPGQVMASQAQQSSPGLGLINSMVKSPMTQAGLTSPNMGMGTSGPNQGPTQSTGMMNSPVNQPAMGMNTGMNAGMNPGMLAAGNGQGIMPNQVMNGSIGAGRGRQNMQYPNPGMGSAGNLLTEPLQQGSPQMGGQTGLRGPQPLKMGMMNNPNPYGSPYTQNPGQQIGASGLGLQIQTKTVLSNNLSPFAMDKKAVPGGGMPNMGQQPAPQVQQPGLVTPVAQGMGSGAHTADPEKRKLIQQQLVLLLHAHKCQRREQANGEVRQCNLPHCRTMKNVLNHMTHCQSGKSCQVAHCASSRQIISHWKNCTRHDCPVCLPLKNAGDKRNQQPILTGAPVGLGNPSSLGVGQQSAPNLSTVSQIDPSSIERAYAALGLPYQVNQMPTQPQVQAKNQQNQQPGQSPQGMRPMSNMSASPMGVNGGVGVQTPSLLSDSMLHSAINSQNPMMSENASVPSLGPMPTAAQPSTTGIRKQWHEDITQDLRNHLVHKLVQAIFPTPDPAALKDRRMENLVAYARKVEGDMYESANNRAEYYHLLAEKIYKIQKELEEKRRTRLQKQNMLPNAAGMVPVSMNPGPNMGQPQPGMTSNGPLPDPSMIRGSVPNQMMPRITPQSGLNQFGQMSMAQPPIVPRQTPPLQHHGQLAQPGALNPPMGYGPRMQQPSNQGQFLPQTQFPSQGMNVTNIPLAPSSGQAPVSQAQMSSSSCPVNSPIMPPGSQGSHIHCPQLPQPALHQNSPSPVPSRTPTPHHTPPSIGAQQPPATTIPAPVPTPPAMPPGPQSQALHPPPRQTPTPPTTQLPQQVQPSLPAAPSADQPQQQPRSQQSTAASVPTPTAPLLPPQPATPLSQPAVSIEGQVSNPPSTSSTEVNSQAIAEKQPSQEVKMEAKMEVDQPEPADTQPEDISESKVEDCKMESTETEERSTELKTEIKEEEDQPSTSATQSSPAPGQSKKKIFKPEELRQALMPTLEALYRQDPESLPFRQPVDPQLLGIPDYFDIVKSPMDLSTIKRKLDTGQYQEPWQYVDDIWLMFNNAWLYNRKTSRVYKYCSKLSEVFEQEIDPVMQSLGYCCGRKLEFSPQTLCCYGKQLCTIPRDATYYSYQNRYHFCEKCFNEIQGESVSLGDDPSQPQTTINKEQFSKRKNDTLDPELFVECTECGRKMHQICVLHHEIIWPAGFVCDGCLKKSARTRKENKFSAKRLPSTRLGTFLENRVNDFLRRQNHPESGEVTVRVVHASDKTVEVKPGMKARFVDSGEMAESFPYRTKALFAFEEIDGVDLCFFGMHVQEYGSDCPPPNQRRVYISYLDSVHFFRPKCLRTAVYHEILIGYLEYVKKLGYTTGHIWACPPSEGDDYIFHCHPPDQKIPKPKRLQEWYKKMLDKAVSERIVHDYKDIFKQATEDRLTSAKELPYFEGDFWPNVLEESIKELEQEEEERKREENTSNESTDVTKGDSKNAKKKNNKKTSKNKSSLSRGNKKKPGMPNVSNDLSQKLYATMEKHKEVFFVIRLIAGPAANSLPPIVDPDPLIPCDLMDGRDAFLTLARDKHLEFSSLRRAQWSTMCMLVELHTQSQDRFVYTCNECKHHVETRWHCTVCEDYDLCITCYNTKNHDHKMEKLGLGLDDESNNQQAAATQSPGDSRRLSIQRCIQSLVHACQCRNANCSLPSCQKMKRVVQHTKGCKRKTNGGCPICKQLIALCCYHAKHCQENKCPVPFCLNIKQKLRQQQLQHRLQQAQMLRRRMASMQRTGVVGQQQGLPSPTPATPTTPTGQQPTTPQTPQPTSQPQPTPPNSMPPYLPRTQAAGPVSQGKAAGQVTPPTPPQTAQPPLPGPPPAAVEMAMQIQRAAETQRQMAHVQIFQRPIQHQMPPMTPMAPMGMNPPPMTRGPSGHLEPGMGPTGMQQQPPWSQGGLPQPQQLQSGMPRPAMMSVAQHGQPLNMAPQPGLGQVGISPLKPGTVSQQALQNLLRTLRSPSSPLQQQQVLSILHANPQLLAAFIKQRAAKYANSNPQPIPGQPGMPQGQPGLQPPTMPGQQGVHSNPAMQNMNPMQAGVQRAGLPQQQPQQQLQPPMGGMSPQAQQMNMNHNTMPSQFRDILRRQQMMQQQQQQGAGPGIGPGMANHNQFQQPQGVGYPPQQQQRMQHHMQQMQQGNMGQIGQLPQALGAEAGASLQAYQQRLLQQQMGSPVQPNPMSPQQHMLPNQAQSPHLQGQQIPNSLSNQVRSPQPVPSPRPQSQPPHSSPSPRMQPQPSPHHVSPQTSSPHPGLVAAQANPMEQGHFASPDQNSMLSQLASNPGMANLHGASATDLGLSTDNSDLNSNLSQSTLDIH

[8] = target: T2, IRF3 (Homo sapiens (THP-1-derived macrophages)) (UniProt Q14653); conditions: LPS 45 min extract; likely tethered by NF-kB; Nuclear extract PBM (PMA-differentiated THP-1; untreated, LPS 45 min, or IFNg+LPS), antibody detection; buffer, salt, pH and temperature not in the material
T2 sequence: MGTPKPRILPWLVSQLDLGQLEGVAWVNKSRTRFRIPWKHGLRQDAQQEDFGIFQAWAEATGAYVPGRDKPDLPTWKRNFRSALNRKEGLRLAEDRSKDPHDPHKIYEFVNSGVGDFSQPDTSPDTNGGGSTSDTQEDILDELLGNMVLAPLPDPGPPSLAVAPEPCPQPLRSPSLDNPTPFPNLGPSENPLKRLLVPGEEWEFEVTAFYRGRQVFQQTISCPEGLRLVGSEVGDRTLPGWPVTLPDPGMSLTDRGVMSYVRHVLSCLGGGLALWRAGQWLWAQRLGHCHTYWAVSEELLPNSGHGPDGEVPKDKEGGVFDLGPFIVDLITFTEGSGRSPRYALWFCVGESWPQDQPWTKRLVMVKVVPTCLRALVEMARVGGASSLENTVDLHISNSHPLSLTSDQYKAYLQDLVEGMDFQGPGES

[9] = not recruited or below detection

p65 (RELA, NF-kB) (Homo sapiens (THP-1-derived macrophages)), sequence (Q04206 whole entry): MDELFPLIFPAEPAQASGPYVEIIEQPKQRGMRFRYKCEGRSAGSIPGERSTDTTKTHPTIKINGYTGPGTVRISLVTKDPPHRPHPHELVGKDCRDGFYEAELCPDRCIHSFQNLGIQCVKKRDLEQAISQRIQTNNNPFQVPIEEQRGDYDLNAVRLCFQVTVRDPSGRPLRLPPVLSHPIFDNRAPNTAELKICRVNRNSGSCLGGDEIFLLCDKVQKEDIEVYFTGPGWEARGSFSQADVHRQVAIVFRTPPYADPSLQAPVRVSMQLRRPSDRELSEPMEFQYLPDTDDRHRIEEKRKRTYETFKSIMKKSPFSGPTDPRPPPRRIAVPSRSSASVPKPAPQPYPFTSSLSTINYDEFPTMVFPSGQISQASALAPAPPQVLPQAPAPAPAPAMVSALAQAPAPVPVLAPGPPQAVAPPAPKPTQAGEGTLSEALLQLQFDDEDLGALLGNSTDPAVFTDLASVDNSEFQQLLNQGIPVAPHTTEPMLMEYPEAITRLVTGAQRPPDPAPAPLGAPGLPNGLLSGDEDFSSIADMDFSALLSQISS

GCCTAGTTGCAGACTCGAAGGTATTATTTATTCTAGGTCTTGATTCGCTTGACGCTGCTG (double strand) [CXCL10 tile 9]
binding signal ([1]; LPS 45 min extract): 0.218 Z score

GAAATTTAGAACGGAAAGTGAAACCA (double strand) [rs10833823 non-REF (G)]
binding signal [2]: 28.5 Z score
binding signal [3]: 3.36 Z score
binding signal ([4]; IFNg+LPS extract): 15.8 Z score

GCCTAGCTTAGCAAAACCTGCTGGCTGTTCCTCTAGGTCTTGATTCGCTTGACGCTGCTG (double strand) [CXCL10 tile 1]
binding signal ([1]; LPS 45 min extract): 0.046 Z score

TGATGCAATGAAATGGGGAAGTATTA (double strand) [rs11950944 non-REF (A)]
binding signal [5]: 5.99 Z score
binding signal [6]: 2.99 Z score
binding signal [2]: 2.61 Z score
binding signal ([7]; IFNg+LPS extract): 2.36 Z score

GCCTAGTATTATTTATTGTAGCCTCCAAGTTACTAGGTCTTGATTCGCTTGACGCTGCTG (double strand) [CXCL10 tile 12]
binding signal ([1]; LPS 45 min extract): -0.454 Z score

GCCTAGGAAGGTATTATTTATTGTAGCCTCCACTAGGTCTTGATTCGCTTGACGCTGCTG (double strand) [CXCL10 tile 11]
binding signal ([1]; LPS 45 min extract): -1.38 Z score

GCCTAGTGGCTGTTCCTGGGGAAGTCCCATGTCTAGGTCTTGATTCGCTTGACGCTGCTG (double strand) [CXCL10 tile 4]
binding signal ([1]; LPS 45 min extract): 15 Z score

GCCTAGGACTCGAAGGTATTATTTATTGTAGCCTAGGTCTTGATTCGCTTGACGCTGCTG (double strand) [CXCL10 tile 10]
binding signal ([1]; LPS 45 min extract): -0.567 Z score

GCCTAGGTTCCTGGGGAAGTCCCATGTTGCAGCTAGGTCTTGATTCGCTTGACGCTGCTG (double strand) [CXCL10 tile 5]
binding signal ([1]; LPS 45 min extract): 8.52 Z score

GCCTAGAAGTCCCATGTTGCAGACTCGAAGGTCTAGGTCTTGATTCGCTTGACGCTGCTG (double strand) [CXCL10 tile 7]
binding signal ([1]; LPS 45 min extract): 0.56 Z score

GAAATTTAGAACAGAAAGTGAAACCA (double strand) [rs10833823 REF (A)]
binding signal [2]: 9.71 Z score
binding signal [3]: 1.54 Z score
binding signal ([4]; IFNg+LPS extract): 10.6 Z score

GCCTAGCCTGCTGGCTGTTCCTGGGGAAGTCCCTAGGTCTTGATTCGCTTGACGCTGCTG (double strand) [CXCL10 tile 3]
binding signal ([1]; LPS 45 min extract): 20.9 Z score
binding signal ([1]; untreated extract): 7.49 Z score
binding signal ([7]; LPS 45 min extract, replicate 1 (replicate 2: 3.237)): 3.75 Z score
binding signal ([7]; untreated extract, replicate 1 (replicate 2: 0.462)): -0.59 Z score
binding signal [8]: 3.17 Z score
binding signal ([4]; LPS 45 min extract): -1.16 Z score
binding signal ([4]; untreated extract): -0.828 Z score

GCCTAGCCATGTTGCAGACTCGAAGGTATTATCTAGGTCTTGATTCGCTTGACGCTGCTG (double strand) [CXCL10 tile 8]
binding signal ([1]; LPS 45 min extract): 0.079 Z score

GCCTAGCAAAACCTGCTGGCTGTTCCTGGGGACTAGGTCTTGATTCGCTTGACGCTGCTG (double strand) [CXCL10 tile 2]
binding signal ([1]; LPS 45 min extract): -0.374 Z score

TGATGCAATGAAGTGGGGAAGTATTA (double strand) [rs11950944 REF (G)]
binding signal [5]: 4.04 Z score
binding signal [6, 9]: -0.38 Z score
binding signal [2, 9]: 0.37 Z score
binding signal ([7]; IFNg+LPS extract, not recruited or below detection): -0.13 Z score

GCCTAGTGGGGAAGTCCCATGTTGCAGACTCGCTAGGTCTTGATTCGCTTGACGCTGCTG (double strand) [CXCL10 tile 6]
binding signal ([1]; LPS 45 min extract): 14.3 Z score
